Where a chain is given by its changes, count along the chain named.
T1: EGFRvIII fragment amino acid residues 1 to 18, displayed on yeast (human)
T1 construct: also called aa 1-18
T1 peptide: LEEKKGNYVVTDHGSCVR

T2: EGFRvIII fragment amino acid residues 3 to 18, displayed on yeast (human)
T2 construct: also called aa 3-18
T2 peptide: EKKGNYVVTDHGSCVR

B1: F266-11C8 (antibody, V domains shown)
VH: QIQLVQSGPELKKPGETVKISCKASGYTFTTAGMQWVQKMPGKGFKWIGWINTHSGDPKYAEDFKGRFAFSLETYASTAYLQISNLKNEDTASYFCARTHIYDGYNYAMDYWGQGTSVTVSS
VL: DVVMTQTPLSLPVSLGDQASISCRSSQSLVYSNGNTYLHWYLQKPGQSPKLLIYKVSNRFSGVPDRFSGSGSGTDFTLKISRVEAEDLGVYFCSQSTHVPFTFGSGTKLEIK
notes: Mouse hybridoma mAb; also called 11H5 (11C8)
B2: F266-11H3 (antibody, V domains shown)
VH: B1 VH with S93T
VL: B1 VL
notes: Mouse hybridoma mAb
B3: F266-11B1 (antibody, V domains shown)
VH: B1 VH with Q38K
VL: B1 VL
notes: Mouse hybridoma mAb
B4: F263-1A8 (antibody, V domains shown)
VH: EVQLQQSGAELVRPGALVKLSCKASGFNIKDYYMHWVKQRPEQGLEWIGWIDPENGNTIYDPKFQGKATITADTSSNTAYLQLSSLASEDTAVYYCARGWLLLWGQGTTLTVSS
VL: not shown
notes: Mouse hybridoma mAb
B5: F260-5G6 (antibody, V domains shown)
VH: EVQLQQSGAELARPGASVKMSCKASGYTFTSYWMHWVKQRPGQGLEWIGAIYPGNSDISYNQKFKGKAKLTAVTSATTAYMELSSLTNEDSAVYYCTLYDYDPDYWGQGTTLTVSS
VL: not shown
notes: Mouse hybridoma mAb
B6: hFc-13.1.2-MMAE (antibody, human IgG1, kappa, V domains shown)
VH: QVQLVESGGGVVQPGRSLRLSCAASGFTFSSYGMHWVRQAPGKGLEWVAVIWYDGSNKYYVDSVKGRFTISRDNSKNTLYLQMNSLRAEDTAVYYCARDGWQQLAPFDYWGQGTLVTVSS
VL: not shown
modifications: MC-vc-PAB-MMAE on reduced interchain cysteines
B7: hFc-4E11-MMAE (antibody, human IgG1, kappa, V domains shown)
VH: DVQLQESGPGLVKPSQSLSLTCTVTGYSITSDYAWNWIRQFPGNKLEWMGYIGYNGRTSYNPSLKSRISITRDTSKNQFFLQLNYVTTEDTATFYCARLGRGFAYWGQGTLVTVSA
VL: DILMTQSPSSMSVSLGDTVSITCHASQGINSNIGWLLQKPGKSFKGLIYHGTNLEDGVPSRFSGSGSGTDYSLTISSLESEDFADYYCVQYAQFPYTFGGGTKLEIKR
modifications: MC-vc-PAB-MMAE on reduced interchain cysteines
B8: hFc-5G6-MMAE (antibody, human IgG1, kappa, V domains shown)
VH: B5 VH
VL: not shown
modifications: MC-vc-PAB-MMAE on reduced interchain cysteines
B9: hFc-13.1.2 (antibody, human IgG1, kappa, V domains shown)
VH: B6 VH
VL: not shown
B10: hFc-5G6 (antibody, human IgG1, kappa, V domains shown)
VH: B5 VH
VL: not shown
notes: Chimeric antibody, mouse variable regions on human IgG1 / human kappa, produced in CHO cells; also called chimeric 5G6

Each binder was assayed against T3, EGFRvIII, full length, overexpressed on glioblastoma cells (human, UniProt P00533 298-623) (assay: cell-based or functional assay).

Row | Binder | % internalization (pHrodo surrogate assay, vs 225 mAb) [%]
1 | B1 | 136
2 | B2 | 131
3 | B3 | 131
4 | B4 | 100
5 | B5 | 102

The binders below were run against T4, wild type human EGFR, full length, overexpressed on U87MG cells (human, UniProt P00533 25-1210) (assay: cell-based or functional assay).

Row | Binder | % internalization (pHrodo surrogate assay, vs 225 mAb) [%]
6 | B1 | < 2
7 | B2 | < 2
8 | B3 | < 2
9 | B4 | < 2
10 | B5 | < 2

Biological target: T3, EGFRvIII, full length, overexpressed on …
Experiment: cell-based or functional assay
Remark: another data set of the same source

Row | Binder | % survival (DM1 secondary-conjugate ADC surrogate assay, vs mouse IgG) [%]
11 | B1 | 55
12 | B2 | 62
13 | B3 | 62
14 | B4 | 65
15 | B5 | 55

Biological target: T4, wild type human EGFR, full length, …
Experiment: cell-based or functional assay
Remark: another data set of the same source

Row | Binder | % survival (DM1 secondary-conjugate ADC surrogate assay, vs mouse IgG) [%]
16 | B1 | > 98
17 | B2 | > 98
18 | B3 | > 98
19 | B4 | > 98
20 | B5 | 91

Biological target: T3, EGFRvIII, full length, overexpressed on …
Experiment: cell-based or functional assay
Remark: another data set of the same source

Row | Binder | IC50 of growth inhibition, DKMG EGFRvIII cells [nM] | IC50 of growth inhibition, U87MG EGFRvIII cells [nM]
21 | B6 | 2.5 | 1.9
22 | B7 | – | 0.2
23 | B8 | 0.3 | 0.3

These binders were tested against T5, recombinant human EGFRvIII protein (extracellular domain), native (human, UniProt P00533 298-623) (assay: ELISA Exp 1, mAb supernatant).
T5 construct: also called hEGFRvIII
Protocol: (§1) Pre- and post-immune sera titers of animals were assessed by ELISA on recombinant EGFRvIII protein. Unless otherwise stated, all incubations were performed at room temperature. […] Microplates were washed three times in PBS and blocked for 30 min with PBS containing 1% bovine serum albumin (BSA, Sigma Cat #A7030). Blocking buffer was removed and 25 μl of serial dilutions of sera samples were added. […] After a 1-h incubation, microplates were washed 4 times and 25 μl of p-nitrophenyl phosphate (pNPP) substrate (Sigma-Aldrich Canada Co., Oakville, ON) at 1 mg/ml in carbonate buffer at pH 9.6 was added and further incubated for 30 min.
(§2) Antigens at 1-2 mg/ml were incubated at 95° C. for 5 min in PBS containing DTT at a final concentration of 40 mM. They were then incubated on ice for 5 min and diluted at their final coating concentration for ELISA purpose.
(§3) ELISA was performed as described above (serum titer determination) using 25 μl of mAb supernatant (Exp 1) or purified mAb at 1 μg/ml (Exp 2).

Row | Binder | ELISA absorbance 405 nm [A405]
24 | B1 | 1.56
25 | B2 | 1.66
26 | B3 | 1.67
27 | B4 | 1.67
28 | B5 | 1.45

What follows are binders tested against T6, recombinant human EGFRvIII protein (extracellular domain), denatured (human, UniProt P00533 298-623) (assay: ELISA Exp 1, mAb supernatant).
T6 construct: Same protein as m21 after 95 C for 5 min in PBS with 40 mM DTT (denatured, reduced); also called EGFRvIII Denatured
Protocol: as §1, §2, §3

Row | Binder | ELISA absorbance 405 nm [A405]
29 | B1 | 2.1
30 | B2 | 2.1
31 | B3 | 2.2
32 | B4 | 2.09
33 | B5 | 1.94

Each binder was assayed against T7, recombinant human wild type EGFR protein (extracellular domain), native (human, UniProt P00533 25-645) (assay: ELISA Exp 1, mAb supernatant).
T7 construct: also called wt EGFR; EGFR WT
Protocol: as §1, §2, §3

Row | Binder | ELISA absorbance 405 nm [A405]
34 | B1 | 0.011
35 | B2 | 0.053
36 | B3 | 0.034
37 | B4 | 0.016
38 | B5 | 0

The binders below were run against T8, recombinant human wild type EGFR protein (extracellular domain), denatured (human, UniProt P00533 25-645) (assay: ELISA Exp 1, mAb supernatant).
T8 construct: Same protein as m23 after 95 C for 5 min in PBS with 40 mM DTT (denatured, reduced); also called wt EGFR Denatured
Protocol: as §1, §2, §3

Row | Binder | ELISA absorbance 405 nm [A405]
39 | B1 | 0.009
40 | B2 | 0.041
41 | B3 | 0.032
42 | B4 | 0.013
43 | B5 | 0.005

Biological target: T1, EGFRvIII fragment amino acid residues 1 …
Experiment: yeast surface display, flow cytometry
Description: (§4) Assessment of the binding of anti-EGFRvIII mAbs to the fusion proteins expressed on yeast cell surface was done by flow cytometry analysis. Briefly, yeast cells were labeled with both the anti-hEGFRvIII mAb and chicken anti-Myc antibody, the latter being used to monitor the level of expression of the fusion protein. Following a wash step, binding of the primary antibodies is probed by a two-color indirect fluorescence labeling using secondary antibodies specific for mouse and chicken antibodies, respectively.

Row | Binder | binding result
44 | B1 | binds
45 | B2 | binds
46 | B3 | binds
47 | B9 | binds

Biological target: T2, EGFRvIII fragment amino acid residues 3 …
Experiment: yeast surface display, flow cytometry
Description: as §4

Row | Binder | binding result
48 | B4 | binds
49 | B5 | binds

Each binder was assayed against T5, recombinant human EGFRvIII protein … (assay: ELISA Exp 2, purified mAb 1 ug/ml;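 further: ELISA of purified mAb binding to plate-coated antigen, native or heat/DTT-denatured, with pNPP substrate developed for 30 min and incubations at room temperature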).
Protocol: as §1, §2, §3

Row | Binder | ELISA absorbance 405 nm [A405]
50 | B1 | 1.72
51 | B2 | 1.78
52 | B3 | 1.72
53 | B4 | 1.79
54 | B5 | 1.74

These binders were tested against T6, recombinant human EGFRvIII protein … (assay: ELISA Exp 2, purified mAb 1 ug/ml;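 further: ELISA of purified mAb binding to plate-coated antigen, native or heat/DTT-denatured, with pNPP substrate developed for 30 min and incubations at room temperature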).
Protocol: as §1, §2, §3

Row | Binder | ELISA absorbance 405 nm [A405]
55 | B1 | 1.71
56 | B2 | 1.79
57 | B3 | 1.77
58 | B4 | 1.71
59 | B5 | 1.74

Each binder was assayed against T7, recombinant human wild type EGFR … (assay: ELISA Exp 2, purified mAb 1 ug/ml;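 further: ELISA of purified mAb binding to plate-coated antigen, native or heat/DTT-denatured, with pNPP substrate developed for 30 min and incubations at room temperature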).
Protocol: as §1, §2, §3

Row | Binder | ELISA absorbance 405 nm [A405]
60 | B1 | 0
61 | B2 | 0.001
62 | B3 | 0.002
63 | B4 | 0.002
64 | B5 | 0.001

These binders were tested against T8, recombinant human wild type EGFR … (assay: ELISA Exp 2, purified mAb 1 ug/ml;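 further: ELISA of purified mAb binding to plate-coated antigen, native or heat/DTT-denatured, with pNPP substrate developed for 30 min and incubations at room temperature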).
Protocol: as §1, §2, §3

Row | Binder | ELISA absorbance 405 nm [A405]
65 | B1 | -0.001
66 | B2 | 0
67 | B3 | 0.004
68 | B4 | 0.001
69 | B5 | 0

These binders were tested against T4, wild type human EGFR, full length, … (assay: flow cytometry dose-response, U87MG-EGFRwt cells).
Protocol: (§5) Prior to analysis, cells were plated such that they were not more than 80% confluent on the day of analysis. Unless otherwise stated, all media are kept are 4° C. and all incubations are performed on wet ice. Cells were washed in PBS, harvested by the addition of cell dissociation buffer (Sigma), centrifuged and resuspended in complete medium at a cell density of 2×10⁶ cells/mL. Fifty μL/well of cells were distributed in a polypropylene v-bottom 96 well plate and serial 1/3 dilutions of purified mAbs starting at 100 nM were added and incubated for 2 hours. […] Cells were washed and re-suspended in medium containing Propidium iodide to exclude dead cells from analysis. Samples were filtered through a 60 μm nylon mesh filter plate (Millipore, Ireland) to remove cell aggregates. Flow cytometry analyses were performed on 2,000 viable single-cells events gated on forward scattering, side scattering parameters and propidium iodide dye exclusion using a BD-LSRFortessa flow cytometer (Becton-Dickinson Biosciences, CA, USA) and a standard filter set using BD FACSDiva™ acquisition software, according to manufacturer's instructions.
(§6) Specific detection of antibody binding was calculated as the mean fluorescent intensity of binding to each primary antibody after background level subtraction of the mean fluorescent intensity of binding of mouse IgG control. The data were analyzed with GraphPad Prism v 6.0 software using one-site specific binding with Hill slope non-linear regression curve fit model to determine Bmax (maximum specific binding) and Kdₐₚₚ (concentration needed to achieve a half-maximum binding at equilibrium) for each mAb tested.

Row | Binder | binding result
70 | B1 | no binding (tested: 100 nM highest concentration)
71 | B2 | no binding (tested: 100 nM highest concentration)
72 | B3 | no binding (tested: 100 nM highest concentration)
73 | B4 | no binding (tested: 100 nM highest concentration)
74 | B5 | no binding (tested: 100 nM highest concentration)

These binders were tested against T4, wild type human EGFR, full length, … (assay: flow cytometry dose-response, U87MG EGFR wt cells).
Protocol: as §5, §6

Row | Binder | binding result
75 | B9 | no binding
76 | B10 | no binding

These binders were tested against T3, EGFRvIII, full length, overexpressed on … (assay: flow cytometry dose-response on DKMG EGFRvIII cells (n=1)).
Protocol: as §5
(§7) These cells were grown in RPMI and 10% fetal bovine serum using standard culturing conditions.

Row | Binder | Bmax
77 | B9 | 16500
78 | B10 | 16900

Each binder was assayed against T3, EGFRvIII, full length, overexpressed on … (assay: flow cytometry dose-response on U87MG-EGFRvIII cells, apparent Kd).
Protocol: as §5, §6

Row | Binder | Kd [nM]
79 | B1 | 3.5
80 | B2 | 2.5
81 | B3 | 2.2
82 | B4 | 2
83 | B5 | 4.2

What follows are binders tested against T3, EGFRvIII, full length, overexpressed on … (assay: flow cytometry dose-response on DKMG EGFRvIII cells, apparent Kd (n=1)).
Protocol: as §5, §7

Row | Binder | Kd [nM]
84 | B9 | 0.947
85 | B10 | 0.832

These binders were tested against T3, EGFRvIII, full length, overexpressed on … (assay: flow cytometry dose-response on U87MG EGFRvIII cells, apparent Kd (n=2)).
Protocol: as §5, §7

Row | Binder | Kd [nM]
86 | B9 | 5.22
87 | B10 | 1.53

— patent US20220193132A1 (NATIONAL RESEARCH COUNCIL OF CANADA, published 2022)
